Data set [1] can be described thus: endogenous DDX3X western blot, HEK293T.
The nature of data set [2]: total DDX3X western blot, siRNA knock-down/rescue. The conditions noted are these: glycan lost; control: siDDX3X + SIR FLAG-DDX3X WT. A general note: A western blot detects proteins with antibodies after separation by electrophoresis.
A short description of data set [3]: FLAG western blot, transfected HEK293T, normalised to β-tubulin. The conditions noted are these: glycan lost; control: FLAG-DDX3X WT.
Data set [4] in a line: cycloheximide chase, FLAG western blot, HEK293T. As to conditions: glycan lost; control: FLAG-DDX3X WT.
A short description of data set [5]: MG132 rescue of FLAG-DDX3X levels, P2A-GFP normalised. As to conditions: glycan lost; control: FLAG-DDX3X WT.

B1: DDX3X: OGT siRNA (protein)
parent chain: MSHVAVENALGLDQQFAGLDLNSSDNQSGGSTASKGRYIPPHLRNREATKGFYDKDSSGWSSSKDKDAYSSFGSRSDSRGKSSFFSDRGSGSRGRFDDRGRSDYDGIGSRGDRSGFGKFERGGNSRWCDKSDEDDWSKPLPPSERLEQELFSGGNTGINFEKYDDIPVEATGNNCPPHIESFSDVEMGEIIMGNIELTRYTRPTPVQKHAIPIIKEKRDLMACAQTGSGKTAAFLLPILSQIYSDGPGEALRAMKENGRYGRRKQYPISLVLAPTRELAVQIYEEARKFSYRSRVRPCVVYGGADIGQQIRDLERGCHLLVATPGRLVDMMERGKIGLDFCKYLVLDEADRMLDMGFEPQIRRIVEQDTMPPKGVRHTMMFSATFPKEIQMLARDFLDEYIFLAVGRVGSTSENITQKVVWVEESDKRSFLLDLLNATGKDSLTLVFVETKKGADSLEDFLYHEGYACTSIHGDRSQRDREEALHQFRSGKSPILVATAVAARGLDISNVKHVINFDLPSDIEEYVHRIGRTGRVGNLGLATSFFNERNINITKDLLDLLVEAKQEVPSWLENMAYEHHYKGSSRGRSKSSRFSGGFGARDYRQSSGASSSSFSSSRASSSRSGGGGHGSSRGFGGGGYGGFYNSDGYGGNYNSQGVDWWGN
For the protein B1, the expression_or_secretion result in data set [1] (glycan lost, control: siRNA against firefly luciferase) is recorded as “decreases”.

B2: DDX3X: FLAG-OGT WT over-expression (protein)
parent chain: B1 parent chain
On to B2, for which the expression_or_secretion entry in data set [1] (glycan gained, control: FLAG-empty vector) was “increases”.

B3: DDX3X: SIR FLAG-DDX3X Ser584Ala (protein)
parent chain: B1 parent chain
In the case of B3, in data set [2], the expression_or_secretion result is listed as “decreases”.

B4: DDX3X: Ser584Ala (protein)
parent chain: B1 parent chain
In the case of B4, in data set [3], the “expression_or_secretion, percent_of_wt” value is “decreases”. The “degradation_or_half_life, other: turnover rate” value in data set [4] is listed as “decreases”. The “degradation_or_half_life, other: proteasome-dependent loss of protein” value in data set [5] is on record as “decreases”.

These data come from PMC12213002.
